For 1 molecule, EC50 results are on record in patent publication CN118307667A.

This assay has as its target RSV A/B株的融合蛋白的融合前和融合后构象. Briefly: ELISA, F protein coated 50 ng/well, anti-human IgG-Fc-HRP. On the technique in general: In an ELISA, binding on a coated surface is turned into a signal by an enzyme label.

B1: RSFP2B6抗体 (antibody, V domains shown)
VH: QVQLVQSGGALAQPGRSLRLSCTTSGFTFGDYAVNWVRQAPGKGLEWVGIVRTEPYGGTTEYSASVKGRFIISRDDSKGIAYLQMNSLKTEDTGVYYCSQPILNVDVWGQGTTVTVSS
VL: NFMLTQPHSVSESPGKTVTISCTRSSGSFGSDYVQWYQQRPGSAPNTVIYENNQRPSGVPDRFSGSIDSSSNSASLTISGLKTEDEADYYCQSYDDNTPWVFGGGTELTVL
For B1, the EC50 – broadly, the midpoint of the concentration-response curve – fell in the range of 0.292 to 0.603 mg/L.
